Numbering of substitutions follows the chain as printed.

From US20220289848A1 (published 2022) come the findings set out here.

B1: PDL1a-E-HN (bispecific antibody)
heavy: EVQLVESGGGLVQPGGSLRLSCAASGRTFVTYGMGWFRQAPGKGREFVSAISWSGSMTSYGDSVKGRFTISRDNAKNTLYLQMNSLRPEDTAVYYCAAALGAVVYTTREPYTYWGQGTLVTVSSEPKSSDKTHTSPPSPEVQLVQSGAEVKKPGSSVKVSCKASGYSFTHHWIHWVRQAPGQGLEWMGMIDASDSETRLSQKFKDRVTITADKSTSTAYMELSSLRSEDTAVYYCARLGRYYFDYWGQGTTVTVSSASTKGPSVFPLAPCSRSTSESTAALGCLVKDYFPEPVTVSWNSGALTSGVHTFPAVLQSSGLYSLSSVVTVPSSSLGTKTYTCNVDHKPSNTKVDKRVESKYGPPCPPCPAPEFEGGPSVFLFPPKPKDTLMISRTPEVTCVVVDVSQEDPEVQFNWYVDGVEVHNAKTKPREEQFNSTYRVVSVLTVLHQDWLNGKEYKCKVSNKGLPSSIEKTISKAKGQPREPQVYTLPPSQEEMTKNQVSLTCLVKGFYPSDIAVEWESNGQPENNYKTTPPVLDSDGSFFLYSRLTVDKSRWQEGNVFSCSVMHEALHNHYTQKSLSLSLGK
light: EIVLTQSPATLSLSPGERATLSCRASENVGTYISWYQQKPGQAPRLLIYGASNRYTGIPARFSGSGSGTDFTLTISSLEPEDFAVYYCGESYGHLYTFGGGTKVEIKRTVAAPSVFIFPPSDEQLKSGTASVVCLLNNFYPREAKVQWKVDNALQSGNSQESVTEQDSKDSTYSLSSTLTLSKADYEKHKVYACEVTHQGLSSPVTKSFNRGEC
B2: PDL1a-E-HC (bispecific antibody)
heavy: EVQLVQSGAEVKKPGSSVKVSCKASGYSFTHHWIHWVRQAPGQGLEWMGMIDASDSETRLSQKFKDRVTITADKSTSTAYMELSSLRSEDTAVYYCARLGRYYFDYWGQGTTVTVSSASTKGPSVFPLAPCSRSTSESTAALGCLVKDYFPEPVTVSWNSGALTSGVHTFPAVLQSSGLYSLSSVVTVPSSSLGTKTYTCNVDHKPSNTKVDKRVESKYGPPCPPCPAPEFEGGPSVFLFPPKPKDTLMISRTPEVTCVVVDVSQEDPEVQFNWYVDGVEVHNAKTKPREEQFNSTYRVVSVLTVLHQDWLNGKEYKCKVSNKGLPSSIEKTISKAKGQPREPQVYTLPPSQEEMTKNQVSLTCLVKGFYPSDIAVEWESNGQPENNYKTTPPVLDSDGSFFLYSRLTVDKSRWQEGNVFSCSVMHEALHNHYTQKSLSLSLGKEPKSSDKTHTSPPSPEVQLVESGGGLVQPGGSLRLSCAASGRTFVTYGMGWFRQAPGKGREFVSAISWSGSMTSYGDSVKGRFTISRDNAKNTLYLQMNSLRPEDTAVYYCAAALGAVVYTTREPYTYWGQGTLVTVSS
light: B1 light
B3: PDL1b-E-HC (bispecific antibody)
heavy: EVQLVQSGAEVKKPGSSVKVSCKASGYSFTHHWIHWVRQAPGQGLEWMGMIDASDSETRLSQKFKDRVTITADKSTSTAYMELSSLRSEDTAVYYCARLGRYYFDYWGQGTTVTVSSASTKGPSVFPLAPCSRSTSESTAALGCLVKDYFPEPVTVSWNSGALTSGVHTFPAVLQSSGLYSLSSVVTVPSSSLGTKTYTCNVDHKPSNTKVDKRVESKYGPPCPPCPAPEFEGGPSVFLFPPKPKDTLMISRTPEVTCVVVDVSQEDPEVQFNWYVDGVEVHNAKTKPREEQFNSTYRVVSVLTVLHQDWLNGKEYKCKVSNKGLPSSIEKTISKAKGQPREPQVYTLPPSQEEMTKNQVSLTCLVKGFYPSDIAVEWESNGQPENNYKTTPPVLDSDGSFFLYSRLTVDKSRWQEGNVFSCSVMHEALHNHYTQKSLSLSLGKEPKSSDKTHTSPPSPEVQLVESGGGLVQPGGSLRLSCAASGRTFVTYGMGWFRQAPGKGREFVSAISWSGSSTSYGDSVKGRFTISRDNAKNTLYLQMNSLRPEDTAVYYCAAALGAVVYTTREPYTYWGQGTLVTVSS
light: B1 light
B4: PDL1a-G15-HC (bispecific antibody)
heavy: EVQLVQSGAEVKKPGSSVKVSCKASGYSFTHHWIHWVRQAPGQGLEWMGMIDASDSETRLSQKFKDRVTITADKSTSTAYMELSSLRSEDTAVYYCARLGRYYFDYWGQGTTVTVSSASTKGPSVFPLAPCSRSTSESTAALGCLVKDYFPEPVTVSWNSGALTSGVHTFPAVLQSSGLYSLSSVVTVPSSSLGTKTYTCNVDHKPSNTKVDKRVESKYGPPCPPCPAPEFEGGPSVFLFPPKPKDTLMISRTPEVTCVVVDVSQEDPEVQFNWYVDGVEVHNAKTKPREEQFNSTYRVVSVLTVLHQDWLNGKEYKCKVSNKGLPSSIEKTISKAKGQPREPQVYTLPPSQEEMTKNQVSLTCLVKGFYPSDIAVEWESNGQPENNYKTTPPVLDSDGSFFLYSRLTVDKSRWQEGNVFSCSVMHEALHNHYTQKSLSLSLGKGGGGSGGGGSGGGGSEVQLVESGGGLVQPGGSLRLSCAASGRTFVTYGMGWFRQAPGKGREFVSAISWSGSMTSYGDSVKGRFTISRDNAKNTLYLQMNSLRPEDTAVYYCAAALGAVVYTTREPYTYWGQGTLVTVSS
light: B1 light
B5: PDL1a-G15-HN (bispecific antibody)
heavy: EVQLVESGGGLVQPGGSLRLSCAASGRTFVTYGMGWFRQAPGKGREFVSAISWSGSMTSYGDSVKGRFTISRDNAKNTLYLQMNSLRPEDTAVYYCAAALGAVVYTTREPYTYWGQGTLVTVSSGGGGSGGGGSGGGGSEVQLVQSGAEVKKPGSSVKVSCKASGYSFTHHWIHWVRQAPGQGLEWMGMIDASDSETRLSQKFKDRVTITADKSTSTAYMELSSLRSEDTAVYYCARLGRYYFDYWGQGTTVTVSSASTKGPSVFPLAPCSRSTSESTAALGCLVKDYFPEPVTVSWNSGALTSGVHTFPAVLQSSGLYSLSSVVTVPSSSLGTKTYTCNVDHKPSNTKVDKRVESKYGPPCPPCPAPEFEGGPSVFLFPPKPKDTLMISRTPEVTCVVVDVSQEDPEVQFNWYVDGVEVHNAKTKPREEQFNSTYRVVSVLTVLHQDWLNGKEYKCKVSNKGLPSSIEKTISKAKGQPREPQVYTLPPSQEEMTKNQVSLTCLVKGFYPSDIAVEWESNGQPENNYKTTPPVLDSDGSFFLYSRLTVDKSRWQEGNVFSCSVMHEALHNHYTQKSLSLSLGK
light: B1 light
B6: PDL1c-E-HC (bispecific antibody)
heavy: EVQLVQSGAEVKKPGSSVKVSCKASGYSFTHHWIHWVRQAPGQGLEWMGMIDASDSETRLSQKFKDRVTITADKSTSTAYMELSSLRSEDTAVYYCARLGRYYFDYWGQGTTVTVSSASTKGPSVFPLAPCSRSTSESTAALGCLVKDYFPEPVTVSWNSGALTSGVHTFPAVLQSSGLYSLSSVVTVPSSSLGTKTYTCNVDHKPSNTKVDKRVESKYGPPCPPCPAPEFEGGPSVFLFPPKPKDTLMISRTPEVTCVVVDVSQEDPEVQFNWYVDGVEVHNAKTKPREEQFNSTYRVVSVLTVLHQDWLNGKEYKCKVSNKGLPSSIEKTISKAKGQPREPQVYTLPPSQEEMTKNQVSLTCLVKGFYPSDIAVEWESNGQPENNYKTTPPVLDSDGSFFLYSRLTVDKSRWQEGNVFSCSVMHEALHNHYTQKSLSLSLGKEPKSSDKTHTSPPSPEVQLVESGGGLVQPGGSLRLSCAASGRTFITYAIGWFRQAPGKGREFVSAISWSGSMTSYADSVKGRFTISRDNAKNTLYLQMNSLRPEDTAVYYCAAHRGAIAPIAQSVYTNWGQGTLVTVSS
light: B1 light
B7: PDL1b-E-HN (bispecific antibody)
heavy: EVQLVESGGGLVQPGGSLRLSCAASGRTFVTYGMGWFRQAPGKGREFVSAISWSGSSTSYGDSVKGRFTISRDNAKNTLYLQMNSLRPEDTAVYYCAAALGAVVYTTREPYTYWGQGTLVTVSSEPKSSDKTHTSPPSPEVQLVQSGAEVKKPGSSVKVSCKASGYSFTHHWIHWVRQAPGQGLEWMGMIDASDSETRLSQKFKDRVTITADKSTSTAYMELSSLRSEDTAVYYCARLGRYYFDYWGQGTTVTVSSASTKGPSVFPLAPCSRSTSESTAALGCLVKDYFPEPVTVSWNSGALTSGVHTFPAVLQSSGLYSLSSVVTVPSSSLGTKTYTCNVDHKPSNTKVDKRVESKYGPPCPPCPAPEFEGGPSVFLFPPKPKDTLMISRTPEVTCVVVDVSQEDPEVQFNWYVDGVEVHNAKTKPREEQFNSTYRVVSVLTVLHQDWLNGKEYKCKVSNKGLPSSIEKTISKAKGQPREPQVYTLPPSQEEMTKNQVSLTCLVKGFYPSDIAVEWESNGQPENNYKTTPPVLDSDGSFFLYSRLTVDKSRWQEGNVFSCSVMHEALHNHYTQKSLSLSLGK
light: B1 light
B8: PDL1c-E-HN (bispecific antibody)
heavy: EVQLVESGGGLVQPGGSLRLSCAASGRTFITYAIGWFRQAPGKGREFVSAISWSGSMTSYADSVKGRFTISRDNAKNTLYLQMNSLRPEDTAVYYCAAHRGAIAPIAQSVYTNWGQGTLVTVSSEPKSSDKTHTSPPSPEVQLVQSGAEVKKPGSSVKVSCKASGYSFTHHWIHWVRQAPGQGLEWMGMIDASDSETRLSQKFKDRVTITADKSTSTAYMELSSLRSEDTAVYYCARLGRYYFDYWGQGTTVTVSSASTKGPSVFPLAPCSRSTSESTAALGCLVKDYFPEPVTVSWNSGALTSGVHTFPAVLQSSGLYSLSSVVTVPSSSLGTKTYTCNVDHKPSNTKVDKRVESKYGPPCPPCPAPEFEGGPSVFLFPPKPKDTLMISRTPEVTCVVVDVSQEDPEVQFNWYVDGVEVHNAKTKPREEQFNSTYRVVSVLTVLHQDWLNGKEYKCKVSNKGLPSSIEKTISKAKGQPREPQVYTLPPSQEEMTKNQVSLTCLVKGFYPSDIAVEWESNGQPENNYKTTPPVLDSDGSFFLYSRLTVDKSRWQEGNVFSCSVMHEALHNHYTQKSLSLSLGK
light: B1 light
B9: anti-CD47 monoclonal antibody (mAb) (antibody, V domains shown)
VH: EVQLVQSGAEVKKPGSSVKVSCKASGYSFTHHWIHWVRQAPGQGLEWMGMIDASDSETRLSQKFKDRVTITADKSTSTAYMELSSLRSEDTAVYYCARLGRYYFDYWGQGTTVTVSS
VL: EIVLTQSPATLSLSPGERATLSCRASENVGTYISWYQQKPGQAPRLLIYGASNRYTGIPARFSGSGSGTDFTLTISSLEPEDFAVYYCGESYGHLYTFGGGTKVEIKR
B10: PDL1a-E-LN (bispecific antibody)
heavy: not shown
light: EVQLVESGGGLVQPGGSLRLSCAASGRTFVTYGMGWFRQAPGKGREFVSAISWSGSMTSYGDSVKGRFTISRDNAKNTLYLQMNSLRPEDTAVYYCAAALGAVVYTTREPYTYWGQGTLVTVSSEPKSSDKTHTSPPSPEIVLTQSPATLSLSPGERATLSCRASENVGTYISWYQQKPGQAPRLLIYGASNRYTGIPARFSGSGSGTDFTLTISSLEPEDFAVYYCGESYGHLYTFGGGTKVEIKRTVAAPSVFIFPPSDEQLKSGTASVVCLLNNFYPREAKVQWKVDNALQSGNSQESVTEQDSKDSTYSLSSTLTLSKADYEKHKVYACEVTHQGLSSPVTKSFNRGEC
B11: PDL1b-E-LN (bispecific antibody)
heavy: not shown
light: B10 light with M57S
B12: PDL1c-E-LN (bispecific antibody)
heavy: not shown
light: EVQLVESGGGLVQPGGSLRLSCAASGRTFITYAIGWFRQAPGKGREFVSAISWSGSMTSYADSVKGRFTISRDNAKNTLYLQMNSLRPEDTAVYYCAAHRGAIAPIAQSVYTNWGQGTLVTVSSEPKSSDKTHTSPPSPEIVLTQSPATLSLSPGERATLSCRASENVGTYISWYQQKPGQAPRLLIYGASNRYTGIPARFSGSGSGTDFTLTISSLEPEDFAVYYCGESYGHLYTFGGGTKVEIKRTVAAPSVFIFPPSDEQLKSGTASVVCLLNNFYPREAKVQWKVDNALQSGNSQESVTEQDSKDSTYSLSSTLTLSKADYEKHKVYACEVTHQGLSSPVTKSFNRGEC
B13: PDL1a-G15-LN (bispecific antibody)
heavy: not shown
light: EVQLVESGGGLVQPGGSLRLSCAASGRTFVTYGMGWFRQAPGKGREFVSAISWSGSMTSYGDSVKGRFTISRDNAKNTLYLQMNSLRPEDTAVYYCAAALGAVVYTTREPYTYWGQGTLVTVSSGGGGSGGGGSGGGGSEIVLTQSPATLSLSPGERATLSCRASENVGTYISWYQQKPGQAPRLLIYGASNRYTGIPARFSGSGSGTDFTLTISSLEPEDFAVYYCGESYGHLYTFGGGTKVEIKRTVAAPSVFIFPPSDEQLKSGTASVVCLLNNFYPREAKVQWKVDNALQSGNSQESVTEQDSKDSTYSLSSTLTLSKADYEKHKVYACEVTHQGLSSPVTKSFNRGEC

PD-L1 expressed on CHO-K1 cells, sequence (Q9NZQ7 19-290): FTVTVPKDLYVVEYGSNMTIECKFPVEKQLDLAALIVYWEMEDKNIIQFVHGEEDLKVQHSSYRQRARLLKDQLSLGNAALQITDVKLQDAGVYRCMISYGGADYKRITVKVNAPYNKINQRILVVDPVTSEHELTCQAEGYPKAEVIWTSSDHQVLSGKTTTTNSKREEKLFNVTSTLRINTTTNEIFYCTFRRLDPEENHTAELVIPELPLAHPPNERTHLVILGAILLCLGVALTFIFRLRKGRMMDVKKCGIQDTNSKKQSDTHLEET

The target in one experiment is CD47 expressed on CHO-K1 cells (UniProt Q08722 19-323). The experiment can be described thus: FACS. Background: In flow cytometry, cells or beads pass a laser one at a time.
Turning to B1, the response was half-maximal at 0.854 nM (EC50).
Still for that read-out and setting: then B2, with 0.255 nM.
Same read-out and setting: as for B3, the figure is 0.328 nM.
For the molecule B4, the half-maximal effective concentration (EC50) – broadly, the concentration that produces a half-maximal response – is 0.247 nM. This EC50 and that of the molecule before are within 1.5-fold of each other.
Molecule B5 had an EC50 of 0.664 nM.
The same measure, in the same setting: then B6, with 0.287 nM; and B7, with 0.521 nM; and B8, with 0.7 nM.
On the same count and under the same terms, then B9, with 0.325 nM.

A further experiment has as its target PD-L1 expressed on CHO-K1 cells (UniProt Q9NZQ7 19-290). Kind of experiment: FACS binding, CHO-K1 cells expressing PD-L1.
The molecule B10 gave an EC50 of 0.351 nM.
For B11, the EC50 is 1.18 nM.
On the same count and under the same terms, then B1, with 0.759 nM.
Turning to B8, the EC50 came out at 1.48 nM.
Same read-out and setting: then B12, with 0.718 nM.
Same read-out and setting: as for B13, the figure is 1.11 nM.
